This note sets out measurements from the Immune Epitope Database (IEDB).

One test has as its target HLA-A*02:01. The experiment in a line: IEDB peptide-MHC binding, purified MHC/direct/fluorescence; filed as Kd, often an IC50 or EC50 that approximates it; ≥ and ≤ were set here for values at or beyond the usual limits of such assays.
The target in a further test is HLA-A*02:03. The description is as above.
For another test, the target named is HLA-A*02:11. The description is as above. The note with it: source organism: Coxiella burnetii Q321.
The next test deals with HLA-A*02:12. The description is as above.
A further test concerns the target HLA-A*02:16. The test is described as above.
For another test, the target named is HLA-A*02:19. Described as above.
Another test deals with HLA-A*03:01. Described as above.
The target of a further test is HLA-A*23:01. The description is as above. The note with it: source organism: Coxiella burnetii Q321.
For a further test, the target named is HLA-A*24:03. Described as above.
A further test addresses HLA-A*26:01. The description is as above.
The next test addresses HLA-A*29:02. The test is described as above. The conditions noted are these: source organism: Coxiella burnetii Q321.
Another test has as its target HLA-A*68:02. The test is described as above. The note with it: source organism: Coxiella burnetii Q321.
The target of a further test is HLA-A*69:01. Described as above. The note with it: source organism: Coxiella burnetii Q321.
A further test has as its target HLA-B*07:02. The description is as above. The note with it: source organism: Coxiella burnetii Q321.
The target in the next test is HLA-B*15:01. Described as above.
For another test, the target named is HLA-B*15:17. The test is described as above.
Another test has as its target HLA-B*18:01. The test is described as above.
The next test concerns the target HLA-B*27:03. The test is described as above.
A further test concerns the target HLA-B*35:01. Described as above. The note with it: source organism: Coxiella burnetii Q321.
The next test deals with HLA-B*39:01. The description is as above.
The target in the next test is HLA-B*46:01. The test is described as above.
The target of the next test is HLA-B*51:01. The description is as above.
Another test addresses HLA-B*57:01. Described as above.
The next test addresses HLA-C*12:03. Described as above. The note with it: source organism: Shigella boydii CDC 3083-94.
The target of another test is HLA-B*15:02. The experiment in a line: IEDB peptide-MHC binding, purified MHC/competitive/fluorescence; filed as Kd, often an IC50 or EC50 that approximates it; ≥ and ≤ were set here for values at or beyond the usual limits of such assays. The conditions noted are these: source organism: Shigella boydii CDC 3083-94.
[1] abbreviates: source organism: Coxiella burnetii Q321.
[2] abbreviates: source organism: Cryptosporidium parvum Iowa II.
[3] abbreviates: source organism: Toxoplasma gondii RH.

Consider DGAEGINPY, for which the Kd with HLA-A*02:01 (setting [1]), in the test with HLA-A*02:03 (setting [1]), with HLA-A*02:11, in the test with HLA-A*02:12 (setting [1]), in the test with HLA-A*02:16 (setting [1]) and with HLA-A*02:19 (setting [1]) was at least 20 µM throughout. The Kd with HLA-A*03:01 (setting [1]), with HLA-A*23:01, with HLA-A*24:03 (setting [1]), with HLA-A*26:01 (setting [1]), in the test with HLA-A*29:02 and in the test with HLA-A*68:02 was at least 20 µM each time. The Kd was at least 20 µM with HLA-A*69:01; 8.58 µM with HLA-B*07:02; 11 µM with HLA-B*15:01 (setting [1]); at least 20 µM with HLA-B*15:17 (setting [1]); at least 20 µM in the test with HLA-B*18:01 (setting [1]); at least 20 µM with HLA-B*27:03 (setting [1]). Also, the Kd is 0.267 µM with HLA-B*35:01; at least 20 µM with HLA-B*39:01 (setting [1]); at least 20 µM in the test with HLA-B*46:01 (setting [1]); at least 20 µM in the test with HLA-B*51:01 (setting [1]); at least 20 µM with HLA-B*57:01 (setting [1]).

As to FMAAFYRVM, the Kd with HLA-C*12:03 is at most 0.001 µM; with HLA-B*15:02, 0.0183 µM.

Consider LPWFLDTTI, for which the Kd in the test with HLA-A*02:01 (setting [2]), with HLA-A*02:03 (setting [2]), in the test with HLA-A*02:12 (setting [2]), in the test with HLA-A*02:16 (setting [2]), with HLA-A*02:19 (setting [2]) and with HLA-A*03:01 (setting [2]) was at least 20 µM each time. The Kd in the test with HLA-A*26:01 (setting [2]), with HLA-B*15:01 (setting [2]), with HLA-B*18:01 (setting [2]), with HLA-B*27:03 (setting [2]), with HLA-B*39:01 (setting [2]) and with HLA-B*46:01 (setting [2]) was at least 20 µM throughout. In addition, the dissociation constant (Kd) with HLA-B*51:01 (setting [2]) was 0.034 µM; with HLA-B*57:01 (setting [2]) it was at least 20 µM.

Take LTMNLVSDI: the Kd was at least 20 µM with HLA-A*03:01 (setting [3]); at least 20 µM with HLA-A*24:03 (setting [3]); at least 20 µM in the test with HLA-A*26:01 (setting [3]); at least 20 µM with HLA-B*15:01 (setting [3]); 0.003 µM in the test with HLA-B*15:17 (setting [3]); at least 20 µM in the test with HLA-B*18:01 (setting [3]). For the same sequence, the Kd with HLA-B*27:03 (setting [3]), with HLA-B*39:01 (setting [3]), in the test with HLA-B*46:01 (setting [3]) and in the test with HLA-B*57:01 (setting [3]) was at least 20 µM each time.

By Kd is commonly meant the concentration at which binding is half-saturated. A high value points to a looser complex.
